Results: paper PMC3215948 (The Journal of Cell Biology, 2006)
Numbering of substitutions follows the chain as printed. Read-outs that look alike come from different tables or passages of the source.

Assays:
Test in all cases: pull-down
[1] = biological target: T1, His6-Vps45p_(L117R) (S. cerevisiae, UniProt P38932 1-577, L117R)
T1 sequence (looked up): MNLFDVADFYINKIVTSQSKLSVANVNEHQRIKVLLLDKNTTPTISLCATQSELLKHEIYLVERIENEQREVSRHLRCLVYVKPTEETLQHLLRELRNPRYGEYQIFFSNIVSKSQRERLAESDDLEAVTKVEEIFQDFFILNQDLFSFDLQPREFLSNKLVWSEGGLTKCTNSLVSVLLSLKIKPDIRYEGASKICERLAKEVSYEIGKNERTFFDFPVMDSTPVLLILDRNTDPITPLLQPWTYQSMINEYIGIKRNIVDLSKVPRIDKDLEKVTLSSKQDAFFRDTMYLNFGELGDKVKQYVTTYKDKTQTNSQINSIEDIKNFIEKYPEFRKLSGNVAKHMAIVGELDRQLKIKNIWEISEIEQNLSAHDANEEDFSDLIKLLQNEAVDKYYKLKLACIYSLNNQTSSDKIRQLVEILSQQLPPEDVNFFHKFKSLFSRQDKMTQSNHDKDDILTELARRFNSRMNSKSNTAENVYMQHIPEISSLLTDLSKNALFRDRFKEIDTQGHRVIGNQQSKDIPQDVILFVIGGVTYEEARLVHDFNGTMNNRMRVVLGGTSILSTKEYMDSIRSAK

[2] = biological target: T2, His6-Vps45p (S. cerevisiae, UniProt P38932 1-577)
T2 sequence (looked up): T1 sequence (looked up) with R117L

[3] = biological target: T2, His6-Vps45p; remark: listed apart in the source

B1: Snc2p-PrA (cytosolic domain of Snc2p fused to protein A) (domain or fragment, S. cerevisiae, UniProt P33328 1-88, looked up)
chain: MSSSVPYDPYVPPEESNSGANPNSQNKTAALRQEIDDTVGIMRDNINKVAERGERLTSIEDKADNLAISAQGFKRGANRVRKQMWWKD
**Q.** Does B1 bind [1]?
**A.** binds

B2: Snc2p_(cyto) (cytosolic domain of Snc2p, PrA tag removed by thrombin) (domain or fragment, S. cerevisiae, UniProt P33328 1-88, looked up)
chain: B1 chain
**Q.** Does B2 bind [2]?
**A.** binds

B3: Snc2p_(Δ2–19)-PrA (domain or fragment, S. cerevisiae, UniProt P33328 1-88, looked up)
chain: MANPNSQNKTAALRQEIDDTVGIMRDNINKVAERGERLTSIEDKADNLAISAQGFKRGANRVRKQMWWKD
**Q.** Does B3 bind [3]?
**A.** binds
